Reference: patent US20070081999A1

Key:
[1] = molecular target: human von Willebrand factor (vWF) (human) (UniProt P04275); experiment: competition ELISA: inhibition of plasma or purified human vWF binding to coated human collagen type I
[2] = molecular target: human von Willebrand factor (vWF) (human) (UniProt P04275); experiment: cell-based or functional assay
[3] = molecular target: human placental collagen type I (fibrillar) (human) (UniProt P02452); experiment: ex vivo ELISA on coated human collagen type I, baboon plasma 48 h after 300 µg/kg mAb 82D6A3, against the pre sample
[4] = molecular target: human placental collagen type I (fibrillar) (human) (UniProt P02452); experiment: ex vivo ELISA on coated human collagen type I, baboon plasma 150 min after 300 µg/kg mAb 82D6A3, against the pre sample
[5] = molecular target: human placental collagen type I (fibrillar) (human) (UniProt P02452); experiment: ex vivo ELISA on coated human collagen type I, baboon plasma 30 min after 300 µg/kg mAb 82D6A3, against the pre sample
[6] = molecular target: human placental collagen type I (fibrillar) (human) (UniProt P02452); experiment: ex vivo ELISA on coated human collagen type I, baboon plasma, 100 µg/kg mAb 82D6A3 group, 0 min (before dosing; pre sample set as 100%)
[7] = molecular target: human placental collagen type I (fibrillar) (human) (UniProt P02452); experiment: ex vivo ELISA on coated human collagen type I, baboon plasma, 600 µg/kg mAb 82D6A3 group, 0 min (before dosing; pre sample set as 100%)
[8] = molecular target: human placental collagen type I (fibrillar) (human) (UniProt P02452); experiment: ex vivo ELISA on coated human collagen type I, baboon plasma 30 min after 100 µg/kg mAb 82D6A3, against the pre sample
[9] = molecular target: human placental collagen type I (fibrillar) (human) (UniProt P02452); experiment: ex vivo ELISA on coated human collagen type I, baboon plasma 24 h after 300 µg/kg mAb 82D6A3, against the pre sample
[10] = molecular target: human placental collagen type I (fibrillar) (human) (UniProt P02452); experiment: ex vivo ELISA on coated human collagen type I, baboon plasma 60 min after 100 µg/kg mAb 82D6A3, against the pre sample
[11] = molecular target: human placental collagen type I (fibrillar) (human) (UniProt P02452); experiment: ex vivo ELISA on coated human collagen type I, baboon plasma 60 min after 600 µg/kg mAb 82D6A3, against the pre sample
[12] = molecular target: human placental collagen type I (fibrillar) (human) (UniProt P02452); experiment: ex vivo ELISA on coated human collagen type I, baboon plasma 60 min after 300 µg/kg mAb 82D6A3, against the pre sample
[13] = molecular target: human placental collagen type I (fibrillar) (human) (UniProt P02452); experiment: ex vivo ELISA on coated human collagen type I, baboon plasma, 300 µg/kg mAb 82D6A3 group, 0 min (before dosing; pre sample set as 100%)
[14] = molecular target: human placental collagen type I (fibrillar) (human) (UniProt P02452); experiment: ex vivo ELISA on coated human collagen type I, baboon plasma 300 min after 600 µg/kg mAb 82D6A3, against the pre sample
[15] = molecular target: human placental collagen type I (fibrillar) (human) (UniProt P02452); experiment: ex vivo ELISA on coated human collagen type I, baboon plasma 30 min after 600 µg/kg mAb 82D6A3, against the pre sample
[16] = molecular target: human placental collagen type I (fibrillar) (human) (UniProt P02452); experiment: ex vivo ELISA on coated human collagen type I, baboon plasma 300 min after 300 µg/kg mAb 82D6A3, against the pre sample
[17] = molecular target: human placental collagen type I (fibrillar) (human) (UniProt P02452); experiment: ex vivo ELISA on coated human collagen type I, baboon plasma 24 h after 600 µg/kg mAb 82D6A3, against the pre sample
[18] = molecular target: human placental collagen type I (fibrillar) (human) (UniProt P02452); experiment: ex vivo ELISA on coated human collagen type I, baboon plasma 150 min after 600 µg/kg mAb 82D6A3, against the pre sample
[19] = molecular target: baboon von Willebrand factor (vWF) (baboon); experiment: ex vivo vWF-occupancy ELISA on baboon plasma against 82D6A3 plasma level
[20] = molecular target: baboon von Willebrand factor (vWF) (baboon); experiment: ex vivo occupancy ELISA, baboon plasma, 100 µg/kg, 60 min
[21] = molecular target: baboon von Willebrand factor (vWF) (baboon); experiment: ex vivo occupancy ELISA (vWF captured, bound mAb detected), baboon plasma, 100 µg/kg group, 0 min (before dosing)
[22] = molecular target: baboon von Willebrand factor (vWF) (baboon); experiment: ex vivo ELISA on coated human collagen type I, baboon plasma 60 min after 300 µg/kg mAb 82D6A3
[23] = molecular target: baboon von Willebrand factor (vWF) (baboon); experiment: ex vivo occupancy ELISA, baboon plasma, 300 µg/kg, 300 min
[24] = molecular target: baboon von Willebrand factor (vWF) (baboon); experiment: ex vivo occupancy ELISA, baboon plasma, 600 µg/kg, 150 min
[25] = molecular target: baboon von Willebrand factor (vWF) (baboon); experiment: ex vivo occupancy ELISA, baboon plasma, 600 µg/kg, 30 min
[26] = molecular target: baboon von Willebrand factor (vWF) (baboon); experiment: ex vivo occupancy ELISA, baboon plasma, 300 µg/kg, 48 h
[27] = molecular target: baboon von Willebrand factor (vWF) (baboon); experiment: ex vivo ELISA on coated human collagen type I, baboon plasma 60 min after 600 µg/kg mAb 82D6A3
[28] = molecular target: baboon von Willebrand factor (vWF) (baboon); experiment: ex vivo occupancy ELISA, baboon plasma, 600 µg/kg, 300 min
[29] = molecular target: baboon von Willebrand factor (vWF) (baboon); experiment: ex vivo occupancy ELISA, baboon plasma, 300 µg/kg, 150 min
[30] = molecular target: baboon von Willebrand factor (vWF) (baboon); experiment: ex vivo occupancy ELISA, baboon plasma, 600 µg/kg, 24 h
[31] = molecular target: baboon von Willebrand factor (vWF) (baboon); experiment: ex vivo ELISA on coated human collagen type I, baboon plasma 1 hour after 100 µg/kg mAb 82D6A3
[32] = molecular target: baboon von Willebrand factor (vWF) (baboon); experiment: ex vivo occupancy ELISA, baboon plasma, 300 µg/kg, 60 min
[33] = molecular target: baboon von Willebrand factor (vWF) (baboon); experiment: ex vivo occupancy ELISA, baboon plasma, 100 µg/kg, 30 min
[34] = molecular target: baboon von Willebrand factor (vWF) (baboon); experiment: ex vivo occupancy ELISA, baboon plasma, 600 µg/kg group, 0 min (before dosing)
[35] = molecular target: baboon von Willebrand factor (vWF) (baboon); experiment: ex vivo occupancy ELISA, baboon plasma, 300 µg/kg, 24 h
[36] = molecular target: baboon von Willebrand factor (vWF) (baboon); experiment: ex vivo occupancy ELISA, baboon plasma, 300 µg/kg, 30 min
[37] = molecular target: baboon von Willebrand factor (vWF) (baboon); experiment: ex vivo occupancy ELISA, baboon plasma, 600 µg/kg, 60 min
[38] = molecular target: baboon von Willebrand factor (vWF) (baboon); experiment: ex vivo occupancy ELISA, baboon plasma, 300 µg/kg group, 0 min (before dosing)

Sequence of human placental collagen type I (fibrillar) (human) (P02452 162-1218 limits assumed, chain 1 of 2): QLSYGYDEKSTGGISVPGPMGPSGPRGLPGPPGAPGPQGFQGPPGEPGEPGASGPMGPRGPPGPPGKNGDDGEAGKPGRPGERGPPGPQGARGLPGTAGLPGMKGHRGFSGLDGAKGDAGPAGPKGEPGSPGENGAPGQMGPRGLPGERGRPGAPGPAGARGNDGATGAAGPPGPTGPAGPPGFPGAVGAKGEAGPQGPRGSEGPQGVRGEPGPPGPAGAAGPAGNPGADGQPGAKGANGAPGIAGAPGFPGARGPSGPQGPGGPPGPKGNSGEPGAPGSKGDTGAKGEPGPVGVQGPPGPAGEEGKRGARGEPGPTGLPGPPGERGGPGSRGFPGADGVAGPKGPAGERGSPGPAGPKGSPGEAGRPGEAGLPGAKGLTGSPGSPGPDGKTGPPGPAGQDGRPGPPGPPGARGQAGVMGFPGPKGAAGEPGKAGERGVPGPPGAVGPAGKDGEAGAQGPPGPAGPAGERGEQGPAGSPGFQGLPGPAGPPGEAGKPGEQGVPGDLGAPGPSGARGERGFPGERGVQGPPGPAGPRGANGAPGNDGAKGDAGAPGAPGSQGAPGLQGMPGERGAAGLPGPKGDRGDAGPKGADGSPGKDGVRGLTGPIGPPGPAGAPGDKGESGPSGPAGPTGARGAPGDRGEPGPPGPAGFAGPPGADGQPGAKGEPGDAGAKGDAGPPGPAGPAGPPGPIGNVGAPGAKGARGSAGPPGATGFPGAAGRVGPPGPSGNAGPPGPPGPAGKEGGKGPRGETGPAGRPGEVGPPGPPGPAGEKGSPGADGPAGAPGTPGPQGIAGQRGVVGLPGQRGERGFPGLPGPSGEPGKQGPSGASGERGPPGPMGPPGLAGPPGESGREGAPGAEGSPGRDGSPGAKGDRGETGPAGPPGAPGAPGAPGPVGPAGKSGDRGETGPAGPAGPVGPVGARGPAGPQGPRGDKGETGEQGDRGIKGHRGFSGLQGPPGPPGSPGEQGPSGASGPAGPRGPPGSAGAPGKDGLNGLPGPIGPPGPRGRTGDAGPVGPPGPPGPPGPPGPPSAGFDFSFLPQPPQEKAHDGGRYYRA
Sequence of human placental collagen type I (fibrillar) (human) (P08123 80-1119 limits assumed, chain 2 of 2, further chain): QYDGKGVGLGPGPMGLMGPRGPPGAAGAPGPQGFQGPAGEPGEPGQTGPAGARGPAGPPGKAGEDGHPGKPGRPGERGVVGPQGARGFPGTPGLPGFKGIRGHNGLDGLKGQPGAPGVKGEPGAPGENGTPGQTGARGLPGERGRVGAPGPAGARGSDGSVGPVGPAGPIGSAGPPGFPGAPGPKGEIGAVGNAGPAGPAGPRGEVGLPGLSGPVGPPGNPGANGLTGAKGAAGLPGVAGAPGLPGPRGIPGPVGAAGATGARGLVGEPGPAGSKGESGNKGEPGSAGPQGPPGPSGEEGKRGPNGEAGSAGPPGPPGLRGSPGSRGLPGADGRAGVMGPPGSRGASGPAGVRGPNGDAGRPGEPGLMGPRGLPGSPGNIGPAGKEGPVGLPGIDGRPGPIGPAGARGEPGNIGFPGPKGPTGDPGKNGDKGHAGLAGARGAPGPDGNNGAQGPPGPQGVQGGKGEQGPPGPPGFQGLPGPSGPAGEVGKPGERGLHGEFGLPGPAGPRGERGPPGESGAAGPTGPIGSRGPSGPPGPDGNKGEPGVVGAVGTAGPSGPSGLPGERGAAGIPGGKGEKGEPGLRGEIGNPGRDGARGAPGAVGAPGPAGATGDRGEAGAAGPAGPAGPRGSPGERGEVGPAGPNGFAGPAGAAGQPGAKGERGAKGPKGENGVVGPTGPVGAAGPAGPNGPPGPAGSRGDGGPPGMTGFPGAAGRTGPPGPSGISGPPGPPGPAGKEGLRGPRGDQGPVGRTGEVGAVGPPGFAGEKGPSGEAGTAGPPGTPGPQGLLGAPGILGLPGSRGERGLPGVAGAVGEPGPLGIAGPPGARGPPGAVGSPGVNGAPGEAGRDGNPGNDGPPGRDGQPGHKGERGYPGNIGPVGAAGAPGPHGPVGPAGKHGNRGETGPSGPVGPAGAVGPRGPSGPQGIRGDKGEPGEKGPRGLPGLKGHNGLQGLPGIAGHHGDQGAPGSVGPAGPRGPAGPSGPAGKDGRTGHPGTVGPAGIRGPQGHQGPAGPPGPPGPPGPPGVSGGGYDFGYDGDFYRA
Sequence of human von Willebrand factor (vWF) (human) (P04275 764-2813 limits assumed): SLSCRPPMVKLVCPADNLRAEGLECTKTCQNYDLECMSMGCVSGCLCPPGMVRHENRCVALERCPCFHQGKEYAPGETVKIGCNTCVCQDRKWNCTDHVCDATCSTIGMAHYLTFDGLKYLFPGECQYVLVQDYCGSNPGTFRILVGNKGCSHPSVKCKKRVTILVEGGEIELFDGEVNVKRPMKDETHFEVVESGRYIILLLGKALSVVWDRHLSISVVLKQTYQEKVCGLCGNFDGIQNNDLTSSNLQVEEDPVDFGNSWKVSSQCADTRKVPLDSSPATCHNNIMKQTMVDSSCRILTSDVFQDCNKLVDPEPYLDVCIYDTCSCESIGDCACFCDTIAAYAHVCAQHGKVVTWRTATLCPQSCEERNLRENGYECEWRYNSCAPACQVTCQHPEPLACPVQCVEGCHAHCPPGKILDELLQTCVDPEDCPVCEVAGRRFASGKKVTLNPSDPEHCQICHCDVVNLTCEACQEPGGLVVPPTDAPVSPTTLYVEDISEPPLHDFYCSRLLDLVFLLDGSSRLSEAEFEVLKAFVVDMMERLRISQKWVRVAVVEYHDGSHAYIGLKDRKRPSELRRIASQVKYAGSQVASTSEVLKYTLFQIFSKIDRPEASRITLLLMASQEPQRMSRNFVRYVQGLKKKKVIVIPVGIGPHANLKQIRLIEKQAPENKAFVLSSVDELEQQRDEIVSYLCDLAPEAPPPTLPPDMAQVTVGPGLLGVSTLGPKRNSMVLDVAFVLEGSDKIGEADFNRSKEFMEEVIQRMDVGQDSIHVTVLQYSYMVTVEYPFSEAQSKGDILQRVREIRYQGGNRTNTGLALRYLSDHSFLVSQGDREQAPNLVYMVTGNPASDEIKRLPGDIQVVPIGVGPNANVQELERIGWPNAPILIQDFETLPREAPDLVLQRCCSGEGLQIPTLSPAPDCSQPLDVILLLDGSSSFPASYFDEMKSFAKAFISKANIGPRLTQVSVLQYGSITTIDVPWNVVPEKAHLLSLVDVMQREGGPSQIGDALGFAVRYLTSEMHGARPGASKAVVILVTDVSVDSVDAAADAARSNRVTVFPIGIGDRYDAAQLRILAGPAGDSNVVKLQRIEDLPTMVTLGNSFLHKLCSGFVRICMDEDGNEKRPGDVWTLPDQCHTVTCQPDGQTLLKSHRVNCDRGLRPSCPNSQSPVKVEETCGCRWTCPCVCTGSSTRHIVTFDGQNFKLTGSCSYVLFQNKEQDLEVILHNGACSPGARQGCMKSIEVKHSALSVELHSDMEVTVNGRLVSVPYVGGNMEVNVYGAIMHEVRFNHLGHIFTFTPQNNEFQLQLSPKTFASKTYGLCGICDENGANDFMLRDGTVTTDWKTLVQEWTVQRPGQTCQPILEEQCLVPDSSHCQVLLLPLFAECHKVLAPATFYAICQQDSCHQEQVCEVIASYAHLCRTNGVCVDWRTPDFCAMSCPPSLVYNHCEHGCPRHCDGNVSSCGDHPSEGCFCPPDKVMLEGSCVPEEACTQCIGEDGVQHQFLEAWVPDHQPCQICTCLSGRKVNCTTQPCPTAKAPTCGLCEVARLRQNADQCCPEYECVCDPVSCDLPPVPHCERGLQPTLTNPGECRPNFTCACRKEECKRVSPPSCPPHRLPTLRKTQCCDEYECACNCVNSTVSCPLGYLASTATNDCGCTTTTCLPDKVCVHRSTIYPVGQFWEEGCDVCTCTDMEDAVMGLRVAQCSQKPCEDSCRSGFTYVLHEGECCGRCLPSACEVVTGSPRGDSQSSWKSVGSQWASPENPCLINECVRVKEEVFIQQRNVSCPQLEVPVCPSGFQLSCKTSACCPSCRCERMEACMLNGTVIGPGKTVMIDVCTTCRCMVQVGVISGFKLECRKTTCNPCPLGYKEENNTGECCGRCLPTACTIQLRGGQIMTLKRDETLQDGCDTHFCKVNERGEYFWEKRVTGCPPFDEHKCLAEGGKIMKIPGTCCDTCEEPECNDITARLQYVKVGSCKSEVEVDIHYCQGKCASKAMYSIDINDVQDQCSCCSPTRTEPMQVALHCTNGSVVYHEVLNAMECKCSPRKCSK

Question: 82D6A3 F(ab) fragment (Fab) was tested. Which IC50 [1] did it give?
Answer: Its IC50 is 1 µg/mL.

Question: What about the platelet deposition onto human collagen type I in flow, shear rate 1300 s^-1 [2] of the same substance?
Answer: Its platelet deposition onto human collagen type I in flow, shear rate 1300 s^-1 is 10 µg/mL.

Question: How did the collagen binding (%) [3] turn out when “baboon von Willebrand factor (vWF), A0A096N8H2 764-2813” was run?
Answer: The collagen binding (%) was 93%.

Question: What about the collagen binding (%) [4] of the same substance?
Answer: The collagen binding (%) was 4%.

Question: And the collagen binding (%) [5]?
Answer: Its collagen binding (%) is 4%.

Question: What about the collagen binding (%) [6] of the same substance?
Answer: Its collagen binding (%) is 101%.

Question: And the collagen binding (%) [7]?
Answer: Its collagen binding (%) is 100%.

Question: What about the collagen binding (%) [8] of the same substance?
Answer: The collagen binding (%) was 64%.

Question: What about the collagen binding (%) [9] of the same substance?
Answer: Its collagen binding (%) is 91%.

Question: And the collagen binding (%) [10]?
Answer: The collagen binding (%) was 69%.

Question: What about the collagen binding (%) [11] of the same substance?
Answer: The collagen binding (%) was 3.5%.

Question: What about the collagen binding (%) [12] of the same substance?
Answer: The collagen binding (%) was 4%.

Question: And the collagen binding (%) [13]?
Answer: Its collagen binding (%) is 101%.

Question: And the collagen binding (%) [14]?
Answer: The collagen binding (%) was 4%.

Question: And the collagen binding (%) [15]?
Answer: Its collagen binding (%) is 4%.

Question: And the collagen binding (%) [16]?
Answer: Its collagen binding (%) is 4%.

Question: And the collagen binding (%) [17]?
Answer: The collagen binding (%) was 45%.

Question: What about the collagen binding (%) [18] of the same substance?
Answer: The collagen binding (%) was 3.52%.

Question: With “murine anti-human vWF monoclonal antibody mAb 82D6A3” as the substance, how does the plasma level from which vWF-occupancy is maximal [19] read?
Answer: The plasma level from which vWF-occupancy is maximal was 1 µg/mL.

Question: And the vWF occupancy (%) [20]?
Answer: Its vWF occupancy (%) is 80%.

Question: And the vWF occupancy (%) [21]?
Answer: The vWF occupancy (%) was 2.3%.

Question: And the ex vivo inhibition of the vWF-collagen interaction (%) [22]?
Answer: Its ex vivo inhibition of the vWF-collagen interaction (%) is 96%.

Question: What about the vWF occupancy (%) [23] of the same substance?
Answer: The vWF occupancy (%) was 94%.

Question: What about the vWF occupancy (%) [24] of the same substance?
Answer: Its vWF occupancy (%) is 97%.

Question: And the vWF occupancy (%) [25]?
Answer: Its vWF occupancy (%) is 96%.

Question: And the vWF occupancy (%) [26]?
Answer: Its vWF occupancy (%) is 63%.

Question: And the IC50 [1]?
Answer: Its IC50 is 0.02 µg/mL.

Question: And the ex vivo inhibition of the vWF-collagen interaction (%) [27]?
Answer: The ex vivo inhibition of the vWF-collagen interaction (%) was 96%.

Question: And the vWF occupancy (%) [28]?
Answer: The vWF occupancy (%) was 97%.

Question: What about the vWF occupancy (%) [29] of the same substance?
Answer: Its vWF occupancy (%) is 101%.

Question: What about the vWF occupancy (%) [30] of the same substance?
Answer: The vWF occupancy (%) was 88%.

Question: And the ex vivo inhibition of the vWF-collagen binding (%) [31]?
Answer: The ex vivo inhibition of the vWF-collagen binding (%) was 31%.

Question: And the vWF occupancy (%) [32]?
Answer: The vWF occupancy (%) was 99%.

Question: And the vWF occupancy (%) [33]?
Answer: The vWF occupancy (%) was 80%.

Question: And the vWF occupancy (%) [34]?
Answer: Its vWF occupancy (%) is 6.9%.

Question: What about the platelet deposition onto human collagen type I in flow, shear rate 1300 s^-1 [2] of the same substance?
Answer: Its platelet deposition onto human collagen type I in flow, shear rate 1300 s^-1 is 1 to 5 µg/mL.

Question: And the vWF occupancy (%) [35]?
Answer: The vWF occupancy (%) was 74%.

Question: What about the vWF occupancy (%) [36] of the same substance?
Answer: The vWF occupancy (%) was 102%.

Question: What about the vWF occupancy (%) [37] of the same substance?
Answer: The vWF occupancy (%) was 96%.

Question: What about the vWF occupancy (%) [38] of the same substance?
Answer: The vWF occupancy (%) was 2.3%.
